Assay results from the supplement of paper PMC7877785.
± gives the uncertainty stated by the source.

Assay: self-splicing fitness, log relative to wild type (ln ratio); higher = more splicing; Tetrahymena group I intron in knt gene, E. coli kanamycin selection, DiMSum; sequences stand for … in CUCUCU…GGAGGGAAAAGUUAUCAGGCAUGCACCUGGUAGCUAGUCUUUAAACCAAUAGAUUGCAUCGGUUUAAAAGGCAAGACCGUCAAAUUGCGGGAAAGGGGUCAACAGCCGUUCAGUACCAAGUCUCAGGGGAAACUUUGAGAUGGCCUUGCAAAGGGUAUGGUAAUAAGCUGACGGACAUGGUCCUAACCACGCAGCCAAGUCCUAAGUCAACAGAUCUUCUGUUGAUAUGGAUGCAGUUCACAGACUAAAUGUCGGUCGGGGAAGAUGUAUUCUUCUCAUAAGAUAUAGUCGGACCUCUCCUUAAUGGGAGCUAGCGGAUGAAGUGAUGCAACACUGGAGCCGCUGGGAACUAAUUUGUAUGCGAAAGUAUAUUGAUUAGUUUUGGAGUACUCGUGGUCG
In short: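 Fitness was computed with DiMSum as the error-weighted combination of replicate fold changes, kanamycin versus none, each normalised to wild type. The library randomised all eight intron nucleotides of the P1ex region, with the intron placed in the knt kanamycin-resistance gene on pET-22b(+) in E. coli BL21(DE3). Six replicate transformations were grown overnight at 37°C or 30°C on LB agar with or without 25 μg/mL kanamycin, plus 100 μg/mL carbenicillin, 50 μM IPTG and 0.2% rhamnose. Pooled colonies were amplicon-sequenced on an Illumina HiSeq 2500.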

Sequence	self-splicing fitness (ln) (30 °C)	self-splicing fitness (ln) (37 °C)
CAUCAGCAAUAUUACGGGCA	-2.51 ± 0.12	-1.83 ± 0.14
CAUCAGCAAUAUUACGGGCC	-3.02 ± 0.45	-2.29 ± 0.47
CAUCAGCAAUAUUACGGGCU	-4.04 ± 0.31	-2.48 ± 0.2
CAUCAGCAAUAUUACGUACG	0.0534 ± 0.077	-0.0455 ± 0.097
CAUCAGCAAUAUUACGUAGU	-1.66 ± 0.04	-0.682 ± 0.06
CAUCAGCAAUAUUACGUAUU	-2.15 ± 0.097	-1.65 ± 0.11
CAUCAGCAAUAUUACGUCAG	-0.52 ± 0.062	0.43 ± 0.092
CAUCAGCAAUAUUACGUCCC	-2.53 ± 0.31	-1.39 ± 0.27
CAUCAGCAAUAUUACGUCCG	-0.619 ± 0.059	0.497 ± 0.088
CAUCAGCAAUAUUACGUGAU	-2.78 ± 0.078	-0.987 ± 0.086
CAUCAGCAAUAUUACGUGGG	-1.9 ± 0.075	-1.71 ± 0.1
CAUCAGCAAUAUUACGUUAA	-2.79 ± 0.16	-1.85 ± 0.17
CAUCAGCAAUAUUACGUUUA	-1.36 ± 0.086	-1.36 ± 0.094
CAUGAGCAAUAUUACGAAGA	–	-2.3 ± 0.26
CAUGAGCAAUAUUACGAGAA	-0.549 ± 0.29	–
CAUGAGCAAUAUUACGAGAG	-3.22 ± 0.16	-3.27 ± 0.23
CAUGAGCAAUAUUACGAUAA	-3.72 ± 0.35	-1.97 ± 0.3
CAUGAGCAAUAUUACGAUUU	-2.51 ± 0.15	-2.15 ± 0.2
CAUGAGCAAUAUUACGCCGG	-3.79 ± 0.22	-2.14 ± 0.26
CAUGAGCAAUAUUACGCGCU	-3.58 ± 0.42	-2.21 ± 0.4
CAUGAGCAAUAUUACGCUCA	-3.35 ± 0.17	-2.18 ± 0.18
CAUGAGCAAUAUUACGCUCU	-3.71 ± 0.49	-2.82 ± 0.31
CAUGAGCAAUAUUACGGAGU	-4.1 ± 0.4	-3.1 ± 0.31
CAUGAGCAAUAUUACGGCUA	-2.75 ± 0.45	-1.87 ± 0.2
CAUGAGCAAUAUUACGGGUC	-2.75 ± 0.25	-2.75 ± 0.27
CAUGAGCAAUAUUACGGUAU	-4 ± 0.39	-3.54 ± 0.33

Sequence	self-splicing fitness (ln) (30 °C)	self-splicing fitness (ln) (37 °C)
CAUGAGCAAUAUUACGGUGA	-1.91 ± 0.35	-2.8 ± 0.44
CAUGAGCAAUAUUACGGUUU	-3.52 ± 0.2	-3.01 ± 0.24
CAUGAGCAAUAUUACGUAAA	-3.16 ± 0.15	-3.43 ± 0.32
CAUGAGCAAUAUUACGUAGU	-5.58 ± 0.41	-3.3 ± 0.19
CAUGAGCAAUAUUACGUAUG	-2.65 ± 0.21	-2.65 ± 0.22
CAUGAGCAAUAUUACGUCAC	-3.36 ± 0.36	–
CAUGAGCAAUAUUACGUCCG	-0.682 ± 0.079	-0.331 ± 0.1
CAUGAGCAAUAUUACGUCGU	-3.75 ± 0.18	-3.34 ± 0.19
CAUGAGCAAUAUUACGUGGA	-3.96 ± 0.47	-3 ± 0.38
CAUGAGCAAUAUUACGUGGU	-3.53 ± 0.18	-2.49 ± 0.16
CAUGAGCAAUAUUACGUUGC	-2.57 ± 0.091	-3.34 ± 0.2
CAUUAGCAAUAUUACGAAAU	-3.12 ± 0.29	-2.37 ± 0.28
CAUUAGCAAUAUUACGAAGA	-3.8 ± 0.43	-0.417 ± 0.23
CAUUAGCAAUAUUACGAUAG	-0.405 ± 0.094	-0.688 ± 0.11
CAUUAGCAAUAUUACGCGAC	-3.58 ± 0.48	–
CAUUAGCAAUAUUACGCUGC	-3.92 ± 0.28	-2.43 ± 0.24
CAUUAGCAAUAUUACGGAUC	-1.46 ± 0.12	-1.6 ± 0.16
CAUUAGCAAUAUUACGGCCU	-3.52 ± 0.18	-2.21 ± 0.21
CAUUAGCAAUAUUACGGGAA	–	-2.59 ± 0.41
CAUUAGCAAUAUUACGGUAA	-2.31 ± 0.14	-2.26 ± 0.14
CAUUAGCAAUAUUACGGUUC	-3.48 ± 0.21	-2.55 ± 0.23
CAUUAGCAAUAUUACGUAAG	-0.138 ± 0.057	0.358 ± 0.074
CAUUAGCAAUAUUACGUCAC	–	-1.63 ± 0.44
CAUUAGCAAUAUUACGUCCU	-3.14 ± 0.18	-1.38 ± 0.15
CAUUAGCAAUAUUACGUGUC	–	-2.18 ± 0.24
CAUUAGCAAUAUUACGUUAA	-2.87 ± 0.22	-1.91 ± 0.2

Sequence	self-splicing fitness (ln) (30 °C)	self-splicing fitness (ln) (37 °C)
CAUUAGCAAUAUUACGUUUU	-4 ± 0.24	-3.21 ± 0.24
CCAAAGCAAUAUUACGAAAA	-1.93 ± 0.17	-2.85 ± 0.32
CCAAAGCAAUAUUACGAAAU	-3.31 ± 0.19	-3.2 ± 0.28
CCAAAGCAAUAUUACGACCA	-3.08 ± 0.34	-1.78 ± 0.45
CCAAAGCAAUAUUACGACGU	-3.76 ± 0.22	-2.8 ± 0.21
CCAAAGCAAUAUUACGAGUG	-0.346 ± 0.039	-0.144 ± 0.058
CCAAAGCAAUAUUACGCCAC	-3.59 ± 0.3	-2.01 ± 0.47
CCAAAGCAAUAUUACGCCCU	-3.49 ± 0.42	-3.01 ± 0.27
CCAAAGCAAUAUUACGCCUA	-4.18 ± 0.33	-3.12 ± 0.35
CCAAAGCAAUAUUACGCGUU	-3.79 ± 0.12	-2.89 ± 0.16
CCAAAGCAAUAUUACGCUCG	-1.97 ± 0.11	-0.271 ± 0.12
CCAAAGCAAUAUUACGCUGG	-4.28 ± 0.23	-2.46 ± 0.17
CCAAAGCAAUAUUACGGAGC	-3.3 ± 0.15	-2.69 ± 0.19
CCAAAGCAAUAUUACGGAUA	-2.87 ± 0.22	-2.17 ± 0.31
CCAAAGCAAUAUUACGGCCG	-0.467 ± 0.1	-0.508 ± 0.12
CCAAAGCAAUAUUACGGGAA	-3.01 ± 0.18	-3.66 ± 0.3
CCAAAGCAAUAUUACGGGGU	-3.24 ± 0.15	-3.43 ± 0.23
CCAAAGCAAUAUUACGGGUC	-4.39 ± 0.23	-3.1 ± 0.22
CCAAAGCAAUAUUACGUACG	-0.00591 ± 0.081	0.0861 ± 0.084
CCAAAGCAAUAUUACGUAGC	-3.81 ± 0.16	-2.48 ± 0.16
CCAAAGCAAUAUUACGUCCA	-2.8 ± 0.26	-2.19 ± 0.3
CCAAAGCAAUAUUACGUCCU	-4.59 ± 0.31	-2.33 ± 0.21
CCAAAGCAAUAUUACGUGAG	-0.357 ± 0.049	0.0847 ± 0.073
CCAAAGCAAUAUUACGUGCU	-4.12 ± 0.18	-2.88 ± 0.18
CCAAAGCAAUAUUACGUUCU	-3.78 ± 0.26	-2.3 ± 0.23
